{"source": "paper doi:10.1101/2021.10.17.464694", "about": "(bioRxiv, 2021)", "binders": {"B1": {"name": "full-length ASCC2 (natural protein)", "chain": "MPALPLDQLQITHKDPKTGKLRTSPALHPEQKADRYFVLYKPPPKDNIPALVEEYLERATFVANDLDWLLALPHDKFWCQVIFDETLQKCLDSYLRYVPRKFDEGVASAPEVVDMQKRLHRSVFLTFLRMSTHKESKDHFISPSAFGEILYNNFLFDIPKILDLCVLFGKGNSPLLQKMIGNIFTQQPSYYSDLDETLPTILQVFSNILQHCGLQGDGANTTPQKLEERGRLTPSDMPLLELKDIVLYLCDTCTTLWAFLDIFPLACQTFQKHDFCYRLASFYEAAIPEMESAIKKRRLEDSKLLGDLWQRLSHSRKKLMEIFHIILNQICLLPILESSCDNIQGFIEEFLQIFSSLLQEKRFLRDYDALFPVAEDISLLQQASSVLDETRTAYILQAVESAWEGVDRRKATDAKDPSVIEEPNGEPNGVTVTAEAVSQASSHPENSEEEECMGAAAAVGPAMCGVELDSLISQVKDLLPDLGEGFILACLEYYHYDPEQVINNILEERLAPTLSQLDRNLDREMKPDPTPLLTSRHNVFQNDEFDVFSRDSVDLSRVHKGKSTRKEENTRSLLNDKRAVAAQRQRYEQYSVVVEEVPLQPGESLPYHSVYYEDEYDDTYDGNQVGANDADSDDELISRRPFTIPQVLRTKVPREGQEEDDDDEEDDADEEAPKPDHFVQDPAVLREKAEARRMAFLAKKGYRHDSSTAVAGSPRGHGQSRETTQERRKKEANKATRANHNRRTMADRKRSKGMIPS"}}, "target": "K63-linked diubiquitin (UniProt P0CG48 1-76; P0CG48 1-76, K48R | K63R | D77 extension)", "test": "ITC", "data": [{"binder": "B1", "values": [{"measurement": "stoichiometry N", "value": 1, "unit": "ASCC2 per K63Ub2"}]}]}
